The target of the test is GST-tagged PEX5-binding domain of X. laevis PEX14 (amino acids 19-78) (Xenopus laevis). The experiment in a line: SEC; Superdex 200 HiLoad 26/600 PG, XBHS buffer with 1 mM DTT; retention volume between 180 and 190 mL. (In general: In gel filtration, larger molecules generally elute earlier.)

The results in this text go back to publication PMC9947420.

“GST-tagged PEX5-binding domain of X. laevis PEX14 (amino acids 19-78) (domain or fragment)”: the stoichiometry N was determined as 2.

A word on the stoichiometry N: it is the number of molecules, sites or subunits per partner or assembly.
